# Reference: publication PMC9973045, “The Drug-Induced Interface That Drives HIV-1 Integrase Hypermultimerization and Loss of Function” (mBio, 2023)
# B1: isolated HIV-1 IN CTD (wild type), IN residues 220 to 270 (domain or fragment)
# chain: IQNFRVYYRDSRDPVWKGPAKLLWKGEGAVVIQDNSDIKVVPRRKAKIIRD
# notes: HIV-1 integrase (IN) carboxyl-terminal domain, residues 220 to 270, lacking the C-terminal tail; numbers count on: the mature integrase (IN residues); A prior drug-free HIV-1 IN CTD structure is cited as PDB 6T6E; also called carboxyl-terminal domain; source: E. coli BL21-CodonPlus (DE3), purified (Ni-NTA, HiTrap SP, SEC); not shown: His6-Sumo, N-terminal, cleaved
# Biological target: the molecule itself
# Test: SEC-MALS; SEC-MALLS of isolated CTDs; Superdex-75 Increase 10/300; 0.5 M NaCl, 25 mM Tris-HCl pH 7.5, 3 mM NaN3, 0.5 mM TCEP; 25°C; loaded at 8, 4, 2, 1 or 0.5 mg/mL; dimer to monomers
protein,measurement,value
B1,stoichiometry N,2
